# In US20150266963A1 (ARGEN X B V, published 2015):
# T1: human CD70 expressed on the surface of cells (human, UniProt P32970 1-193)
# T1 sequence (looked up): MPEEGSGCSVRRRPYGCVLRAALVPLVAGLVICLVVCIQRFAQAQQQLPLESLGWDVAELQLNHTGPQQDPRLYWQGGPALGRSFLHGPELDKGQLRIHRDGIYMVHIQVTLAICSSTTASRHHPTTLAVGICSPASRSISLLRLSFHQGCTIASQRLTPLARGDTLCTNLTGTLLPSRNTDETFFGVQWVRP
# T2: recombinant human CD70 (Flag-TNC-CD70) (human, UniProt P32970 39-193)
# T2 construct: extracellular domain; Captured by anti-Flag mAb in ELISA; as 'recombinant human CD70' immobilised on Biacore CM5 chips; TNC is for trimerisation; also called recombinant CD70; human recombinant CD70; not shown: Flag tag and TNC trimerisation domain
# T2 sequence (looked up): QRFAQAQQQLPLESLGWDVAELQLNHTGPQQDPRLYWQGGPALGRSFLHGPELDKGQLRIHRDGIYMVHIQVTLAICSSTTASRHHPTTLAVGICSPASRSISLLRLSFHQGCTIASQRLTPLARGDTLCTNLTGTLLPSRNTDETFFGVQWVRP
# T3: heat denatured recombinant CD70 (human, UniProt P32970 52-193, limits assumed)
# T3 construct: Same recombinant CD70 as m1, denatured by heating for 5 minutes at 95 C and cooling on ice, coated directly on the plate; also called denatured CD70; not shown: Flag tag (anti-Flag mAb was the coating control) and further fusion parts
# T3 sequence (looked up): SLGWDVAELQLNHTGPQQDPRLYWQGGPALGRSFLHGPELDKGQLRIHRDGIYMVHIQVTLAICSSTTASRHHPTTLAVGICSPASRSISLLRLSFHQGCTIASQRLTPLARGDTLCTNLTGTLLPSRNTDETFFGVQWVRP
# T4: recombinant human CD27 Fc chimera (CD27-Fc) (human, UniProt P26842 21-192)
# T4 construct: Bought reagent; also called recombinant CD27-Fc; Fc part of the bought chimera not given
# T4 sequence (looked up): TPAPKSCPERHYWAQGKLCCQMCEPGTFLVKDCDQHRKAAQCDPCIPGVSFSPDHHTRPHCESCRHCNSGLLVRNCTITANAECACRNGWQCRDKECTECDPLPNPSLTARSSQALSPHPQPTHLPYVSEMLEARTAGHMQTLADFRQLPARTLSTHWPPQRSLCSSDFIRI
# Key:
# [1] = molecular target: T1, human CD70 expressed on the surface of …; assay: cell-based or functional assay
# [2] = molecular target: T2, recombinant human CD70 (Flag-TNC-CD70); assay: inhibition ELISA; Flag-TNC-CD70 captured by anti-Flag mAb; competitor CD27-Fc
# Protocol: From selected phage transfected into TG1, individual colonies were picked randomly for growth in 96 well plates. After IPTG induction according to standard protocols periplasmic fractions (penis) containing Fabs were prepared. […] In this assay, Flag-TNC-CD70 is captured by an anti-Flag mAb and binding of CD27-Fc is detected via a biotinylated anti-CD27 mAb and strep-HRP in the absence or presence of CD70 Fabs (FIGS. 2 and 3) or CD70 mAbs (FIG. 4). In FIG. 2B it can be seen that 27B3, which has an identical VH as 9D1, but contains a somewhat different light chain, seems to block binding of CD27 to CD70 more efficiently, which was in line with the better off rate of this Fab as measured on Biacore (data not shown). Table 3 indicates the blocking potency (expressed as IC50) for the various llama-human chimeric mAbs tested in the CD70 inhibition ELISA. […] FIG. 3 is a composite of an experiment testing llama CD70 Fabs for blocking activity (in the inhibition ELISA, see white bars) and for CD70 binding (binding ELISA, black bars). For the binding ELISA, Flag-TNC-CD70 is captured by an anti-Flag mAb and binding of the Fabs is detected using an anti-myc-HRP mAb, which recognizes the MYC tag fused to the C-terminus of the Fd fragment. For comparison purposes, known monoclonal antibodies to CD70 (SGN70 described in US 2010/0129362 A1, clone 1F6; and MDX69A7 described in WO2008/074004 FIGS. 5A and 5B) were tested in parallel. […] Of interest is clone 59D10, which as Fab has no blocking activity, but when converted into a chimeric IgG was antagonistic (see Table 3). Amino acid sequences of the VH and VL domains of binding and blocking llama-derived Fab clones are shown elsewhere herein (Tables 6-9).
# [3] = molecular target: T3, heat denatured recombinant CD70; assay: ELISA on coated heat denatured recombinant CD70, anti-human IgG-HRP
# Protocol: The binding of CD70 mAbs to denatured recombinant CD70 was assessed by ELISA. Recombinant CD70 was denatured by heating for 5 minutes at 95° C., followed by immediate cooling on ice for 5 minutes. A microtiter plate was coated with 5 μg/ml CD70 with or without denaturation. The plate was blocked and the CD70 mAbs for testing were applied at 10 μg/ml. After washing, binding of the mAbs was detected using anti-human IgG-HRP. As a positive control for the coating, instead of using the CD70 mAbs, an anti-Flag mouse-derived mAb was applied and detection was with anti-mouse-HRP. TMB was used as a substrate and OD at 620 nm was measured. […] Amongst the other mAbs, some are also binding to denatured CD70 (fe 5F4, 9G2, 57B6).
# [4] = molecular target: T1, human CD70 expressed on the surface of …; assay: cell-based or functional assay; remark: listed apart in the source
# [5] = molecular target: T1, human CD70 expressed on the surface of …; assay: flow cytometry on 786-O cells, anti-human Fc-FITC
# Protocol: Fluorescence of 10,000 cells/condition was measured using a flow cytometer and the median fluorescence was plotted.
# [6] = molecular target: T4, recombinant human CD27 Fc chimera …; assay: ELISA; captured Flag-TNC-CD70
binder,measurement,setting,value
"19G10 chimeric llama-human mAb (antibody, human IgG1, V domains shown) VH: EVQLQESGGGVVQPGGSLRLSCAASGFTFDDYAMSWVRQAPGKGLEWVSSIYMYDSSTYYADSVKGRFTISTDNAKNTVYLQMNSLKSEDTAVYYCAKDINRSYGSSWSHFGPIFSSWGQGTQVTVSS VL: NFMLTQPSAVSVSLGQTARITCQGGYYTHWYQQKPGQAPVLVIYVNNNRPSGIPERFSGSSSGNTATLTISGAQAEDEAAYYCQSGSSSTIPVFGGGTKLTVLG","IC50 (ng/ml), IL-8 secretion in Raji / HT1080-CD27 co-culture assay",[1],16 ng/mL
same,IC50,[2],0.075 µg/mL
same,binding result,[3],no binding (tested: 10 µg/ml (text))
"53A2 mAb (full-length human IgG1, HEK293) (antibody, V domains shown) VH: EVQLVESGGGLVQPGGSLRLSCAASGFTFSVYYMNWVRQAPGKGLEWVSDINNEGGTTYYADSVKGRFTISRDNSKNSLYLQMNSLRAEDTAVYYCARDAGYSNHVPIFDSWGQGTLVTVSS VL: QAVVTQEPSFSVSPGGTVTLTCGLKSGSVTSDNFPTWYQQTPGQAPRLLIYNTNTRHSGVPDRFSGSILGNKAALTITGAQADDEAEYFCALFISNPSVEFGGGTQLTVLG",Raji co-culture assay IC50 relative to 27B3,[4],0.8 fold of 27B3
"5F4 chimeric llama-human mAb (antibody, human IgG1, V domains shown) VH: EVQVQESGGGLVHPGGSLKLSCAASGFTFDTYAMSWVRQAPGKGLEWVSAISWSGGETFYAESMKGRFTISRNNAKNTLYLQMNSLKSEDTAVYYCARGMGLAEGLTDWGQGTQVTVSS VL: QAVVTHPPSLSASPGSSVRLTCTLISGDNIGGYDISWYQQKTGSPPRYLLYYYSDSYKHQSSGVPSRFSGSKDASANAGLLLISGLQSEDEADYYCSAYKSGSYKAPVFGGGTHLTVLG","IC50 (ng/ml), IL-8 secretion in Raji / HT1080-CD27 co-culture assay",[1],32 ng/mL
same,EC50 (read off the curve),[5],~0.2 µg/mL
same,IC50,[2],0.296 µg/mL
"41D12 mAb (full-length human IgG1, HEK293) (antibody, V domains shown) VH: EVQLVESGGGLVQPGGSLRLSCAASGFTFSVYYMNWVRQAPGKGLEWVSDINNEGGTTYYADSVKGRFTISRDNSKNSLYLQMNSLRAEDTAVYYCARDAGYSNHVPIFDSWGQGTLVTVSS VL: QAVVTQEPSLTVSPGGTVTLTCGLKSGSVTSDNFPTWYQQTPGQAPRLLIYNTNTRHSGVPDRFSGSILGNKAALTITGAQADDEAEYFCALFISNPSVEFGGGTQLTVLG",Raji co-culture assay IC50 relative to 27B3,[4],1.2 fold of 27B3
"35G2 mAb (full-length human IgG1, HEK293) (antibody, V domains shown) VH: EVQLVESGGGLVQPGGSLRLSCAASGFTFSVYYMNWVRQAPGKGLEWVSDINNEGGTTYYADSVKGRFTISRDNAKNTLYLQMNSLKPEDTAVYYCARDAGYSNHVPIFDSWGQGTLVTVSS VL: QTVVTQEPSFSVSPGGTVTLTCGLKSGSVTSTNFPTWYQQTPGQAPRLLIYNTNSRHSGVPDRFSGSILGNKAALTITGAQADDEADYFCALFISNPSVEFGGGTQLTVLG",Raji co-culture assay IC50 relative to 27B3,[4],1.4 fold of 27B3
"40F1 mAb (full-length human IgG1, HEK293) (antibody, V domains shown) VH: EVQLVESGGGLVQPGGSLRLSCAASGFTFSVYYMNWVRQAPGKGLEWVSDINNEGGATYYADSVKGRFTISRDNSKNSLYLQMNSLRAEDTAVYYCARDAGYSNHVPIFDSWGQGTQVTVSS VL: QAVVTQEPSFSVSPGGTVTLTCGLKSGSVTSDNFPTWYQQTPGQAPRLLIYNTNTRHSGVPDRFSGSILGNKAALTITGAQADDEAEYFCALFISNPSVEFGGGTQLTVLG",Raji co-culture assay IC50 relative to 27B3,[4],1.8 fold of 27B3
"53H1 mAb (full-length human IgG1, HEK293) (antibody, V domains shown) VH: EVQLVESGGGLVQPGGSLRLSCAASGFTFSVYYMNWVRQAPGKGLEWVSDINNEGGTTYYADSVKGRFTISRDNSKNSLYLQMNSLRAEDTAVYYCARDAGYSNHVPIFDSWGQGTLVTVSS VL: QTVVTQEPSFSVSPGGTVTLTCGLKSGSVTSDNFPTWYQQTPGQAPRLLIYNTNTRHSGVPDRFSGSILGNKAALTITGAQADDEAEYFCALFISNPSVEFGGGTQLTVLG",Raji co-culture assay IC50 relative to 27B3,[4],1.6 fold of 27B3
"4D2 chimeric llama-human mAb (antibody, human IgG1, V domains shown) VH: QVQLQESGPGLVKPSQTLSLACTVSGGSITTSYYYWSWIRQPPGKGLEWMGAIGSRGSTYYSPSLKTRTSISRDTSKNQFTLQLSSVTPEDTAVYYCARVTGEITYNSGSYYYTLNLFDYWGQGTQVTVSS VL: QSVLTQPPSLSASPGSSVRLTCTLSSGNSVGNYDISWYQQKAGSPPRYLLYYYSDSYKNQGSGVPSRFSGSKDPSANAGLLLISGLQAEDEADYYCSVSNSGTYKPVFGGGSKLTVLG","IC50 (ng/ml), IL-8 secretion in Raji / HT1080-CD27 co-culture assay",[1],54 ng/mL
same,EC50 (read off the curve),[5],~0.06 µg/mL
same,IC50,[2],0.254 µg/mL
"6D5 (antibody, V domains shown, the mAb format of 6D5 is not described in the text; also called 6D5 mAb) VH: EVQLVQPGAELRKPGASVKVSCKASGYTFTSYYIDWVRQAPGQGLEWMGRIDPEDGGTKYAQKFQGRVTFTADASTSTAYVELSSLRSEDTAVYYCASRRRDFDYWGQGTQVTVSS VL: QSALTQPSAVSVSLGQTARITCQGGNARFSSFAWYQQKPGQAPVQVIYYNTNRPSGIPARFSGSSSGGAATLTISGAQAEDEADYYCQSYESGNYVFGGGTTLTVLG",binding result,[3],no binding (tested: 10 µg/ml (text))
"human-mouse CD70 chimera chim-2.4 (Flag-TNC-CD70) (ligand, not shown: small tags and cut ends, also called chimera 2.4) HPEPHTAELQLNLTVPRKDPTLRWGAGPALGRSFTHGPELEEGHLRIHQDGLYRLHIQVTLAICSSTTASRHHPTTLAVGICSPASRSISLLRLSFHQGCTIASQRLTPLARGDTLCTNLTGTLLPSRNTDETFFGVQWVRP",binding result,[6],binds
"human-mouse CD70 chimera chim-2 (Flag-TNC-CD70) (ligand, not shown: small tags and cut ends, also called chimera 2) HPEPHTAELQLNLTVPRKDPTLRWGAGPALGRSFTHGPELEEGHLRIHQDGLYRLHIQVTLANCSSTTASRHHPTTLAVGICSPASRSISLLRLSFHQGCTIASQRLTPLARGDTLCTNLTGTLLPSRNTDETFFGVQWVRP",binding result,[6],binds
"human-mouse CD70 chimera chim-3 (Flag-TNC-CD70) (ligand, not shown: small tags and cut ends, also called chimera 3) HPEPHTAELQLNLTVPRKDPTLRWGAGPALGRSFTHGPELEEGHLRIHQDGLYRLHIQVTLANCSSPGSTLQHRATLAVGICSPASRSISLLRLSFHQGCTIASQRLTPLARGDTLCTNLTGTLLPSRNTDETFFGVQWVRP",binding result,[6],binds
"human-mouse CD70 chimera chim-4 (Flag-TNC-CD70) (ligand, not shown: small tags and cut ends, also called chimera 4) HPEPHTAELQLNLTVPRKDPTLRWGAGPALGRSFTHGPELEEGHLRIHQDGLYRLHIQVTLANCSSPGSTLQHRATLAVGICSPAAHGISLLRGRFGQDCTVALQRLTYLVHGDVLCTNLTGTLLPSRNTDETFFGVQWVRP",binding result,[6],binds
